We go through 3 molecules from article PMC6900781.

Conditions in all cases: remark: other sources report otherwise
Assay [1] deals with T1, dCENP-A-GFP-LacI (Drosophila melanogaster), Q9V6Q2.
T1 chain: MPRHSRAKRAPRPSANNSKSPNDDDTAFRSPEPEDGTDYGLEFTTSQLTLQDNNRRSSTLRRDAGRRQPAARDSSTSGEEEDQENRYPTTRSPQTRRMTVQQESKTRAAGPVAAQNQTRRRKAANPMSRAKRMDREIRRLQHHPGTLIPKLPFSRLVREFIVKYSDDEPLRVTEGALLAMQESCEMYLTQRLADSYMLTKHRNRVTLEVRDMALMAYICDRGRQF
The assay is described as follows: LacI/LacO tethering and recruitment assay (immunofluorescence); bait fused to GFP-LacI tethered to chromosomal LacO arrays in human U2OS cells; HA- or V5-tagged prey transiently co-expressed; IF 48 h after transfection, prey intensity at the LacO spot or % of cells; no third Drosophila centromere protein co-expressed.

Assay [2] has as its target T1, dCENP-A-GFP-LacI (Drosophila …). The assay is described as follows: LacI/LacO tethering and recruitment assay (immunofluorescence); as a1, but with a third Drosophila centromere protein (CAL1-V5, dCENP-A-HA or -V5, or HA-dCENP-C) co-expressed, as named in the row.
In assay [3] the target is T2, GFP-LacI-dCENP-C (Drosophila melanogaster), Q9VHP9.
T2 chain: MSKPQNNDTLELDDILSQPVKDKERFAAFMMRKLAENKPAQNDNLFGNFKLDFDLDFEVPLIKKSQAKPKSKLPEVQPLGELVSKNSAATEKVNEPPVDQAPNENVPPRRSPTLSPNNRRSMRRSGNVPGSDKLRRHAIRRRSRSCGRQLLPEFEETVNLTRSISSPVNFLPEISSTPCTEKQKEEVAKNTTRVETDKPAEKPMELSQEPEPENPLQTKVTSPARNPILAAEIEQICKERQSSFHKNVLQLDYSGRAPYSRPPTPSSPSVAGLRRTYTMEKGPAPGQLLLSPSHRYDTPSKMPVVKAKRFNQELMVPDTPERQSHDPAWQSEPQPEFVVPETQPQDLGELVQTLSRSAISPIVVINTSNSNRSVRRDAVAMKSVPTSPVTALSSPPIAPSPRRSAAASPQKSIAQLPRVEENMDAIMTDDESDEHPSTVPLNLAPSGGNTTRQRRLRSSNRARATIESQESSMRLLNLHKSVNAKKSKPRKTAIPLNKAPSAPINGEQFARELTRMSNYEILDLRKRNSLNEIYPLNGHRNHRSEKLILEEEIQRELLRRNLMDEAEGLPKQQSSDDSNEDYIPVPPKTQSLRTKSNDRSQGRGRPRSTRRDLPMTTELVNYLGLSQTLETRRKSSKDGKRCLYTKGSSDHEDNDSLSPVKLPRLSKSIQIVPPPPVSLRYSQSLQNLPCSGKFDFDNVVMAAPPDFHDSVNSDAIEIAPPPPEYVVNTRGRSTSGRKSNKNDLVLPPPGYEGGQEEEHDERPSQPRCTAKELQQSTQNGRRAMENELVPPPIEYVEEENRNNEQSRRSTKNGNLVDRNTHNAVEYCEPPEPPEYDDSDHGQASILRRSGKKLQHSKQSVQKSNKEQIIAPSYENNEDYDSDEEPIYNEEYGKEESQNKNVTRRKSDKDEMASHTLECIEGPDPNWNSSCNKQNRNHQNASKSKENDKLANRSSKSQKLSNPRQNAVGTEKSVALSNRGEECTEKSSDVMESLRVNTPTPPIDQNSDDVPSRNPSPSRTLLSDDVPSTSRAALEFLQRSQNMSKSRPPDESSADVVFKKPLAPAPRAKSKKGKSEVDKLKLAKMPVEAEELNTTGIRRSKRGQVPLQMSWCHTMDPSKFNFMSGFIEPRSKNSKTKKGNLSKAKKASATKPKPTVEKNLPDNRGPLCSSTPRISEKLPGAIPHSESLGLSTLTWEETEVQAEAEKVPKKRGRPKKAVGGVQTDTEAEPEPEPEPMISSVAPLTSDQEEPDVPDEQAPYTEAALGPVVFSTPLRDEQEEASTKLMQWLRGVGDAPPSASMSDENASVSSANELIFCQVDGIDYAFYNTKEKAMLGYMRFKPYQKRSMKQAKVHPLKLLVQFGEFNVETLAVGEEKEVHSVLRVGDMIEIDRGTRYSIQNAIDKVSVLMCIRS
The assay is described as follows: LacI/LacO tethering and recruitment assay (immunofluorescence); bait fused to GFP-LacI tethered to chromosomal LacO arrays in human U2OS cells; HA- or V5-tagged prey transiently co-expressed; IF 48 h after transfection, prey intensity at the LacO spot or % of cells; no third Drosophila centromere protein co-expressed.

Assay [4] concerns the target T2, GFP-LacI-dCENP-C (Drosophila …). The assay is described as follows: LacI/LacO tethering and recruitment assay (immunofluorescence); as a1, but with a third Drosophila centromere protein (CAL1-V5, dCENP-A-HA or -V5, or HA-dCENP-C) co-expressed, as named in the row.
For assay [5], the target named is (dCENP-A/dH4) dimer (Drosophila melanogaster), Q9V6Q2. The assay can be described thus: SEC-MALS; recombinant proteins; Superdex 200 10/300 Increase GL, 50 mM HEPES pH 8.0, 150 or 300 mM NaCl, 1 mM TCEP, 22°C, 100 μl of 1-5 mg/ml. For orientation: Size exclusion chromatography separates by hydrodynamic size, large species first.

B1: HA-dCENP-C, Q9VHP9 1-1411 (natural protein)
chain: T2 chain
As to B1, in assay [1], the % of cells with recruitment at LacO (without CAL1-V5) amounted to 17 % cells. Also, the % of cells with recruitment at LacO (with CAL1-V5) in assay [2] turned out to be 55 % cells.

B2: dCENP-A-HA, Q9V6Q2 1-225 (natural protein)
chain: T1 chain
In assay [3], B2 yielded a % of cells with localization at LacO (without CAL1) of 43 % cells. In assay [4], this molecule showed a % of cells with localization at LacO (with CAL1-V5) of 73 % cells.

B3: recombinant CAL1(1-160), Q9VEN2 1-160 (domain or fragment)
chain: MANAVVDEETLEAMVYERSKAWSSKMADFASLEDGMEIDVAEFDNLFHGEDEDPDLDDVAKEAVEDNVPDEAKLEMGHINATSVTELTLILCANEDNEAKAEIEEILNQTVPVVEEHKRKWREAGLDRILDTFDEKQIEHHVGRWMRRHNSVYLEASPPK
Regarding B3, the stoichiometry N ((dCENP-A/dH4) dimer per CAL1(1-160)) in assay [5] worked out at 1.
